B1: Minichromosome maintenance protein 10 (Saccharomyces cerevisiae), P32354 (parent)
chain: MNDPREILAVDPYNNITSDEEDEQAIARELEFMERKRQALVERLKRKQEFKKPQDPNFEAIEVPQSPTKNRVKVGSHNATQQGTKFEGSNINEVRLSQLQQQPKPPASTTTYFMEKFQNAKKNEDKQIAKFESMMNARVHTFSTDEKKYVPIITNELESFSNLWVKKRYIPEDDLKRALHEIKILRLGKLFAKIRPPKFQEPEYANWATVGLISHKSDIKFTSSEKPVKFFMFTITDFQHTLDVYIFGKKGVERYYNLRLGDVIAILNPEVLPWRPSGRGNFIKSFNLRISHDFKCILEIGSSRDLGWCPIVNKKTHKKCGSPINISLHKCCDYHREVQFRGTSAKRIELNGGYALGAPTKVDSQPSLYKAKGENGFNIIKGTRKRLSEEEERLKKSSHNFTNSNSAKAFFDEKFQNPDMLANLDNKRRKIIETKKSTALSRELGKIMRRRESSGLEDKSVGERQKMKRTTESALQTGLIQRLGFDPTHGKISQVLKSSVSGSEPKNNLLGKKKTVINDLLHYKKEKVILAPSKNEWFKKRSHREEVWQKHFGSKETKETSDGSASDLEII

Variants of B1 are the subject of the first assay. The note with it: with sir2_yeast SIR2, P06700.
Chain of sir2_yeast SIR2, P06700 (P06700 whole entry): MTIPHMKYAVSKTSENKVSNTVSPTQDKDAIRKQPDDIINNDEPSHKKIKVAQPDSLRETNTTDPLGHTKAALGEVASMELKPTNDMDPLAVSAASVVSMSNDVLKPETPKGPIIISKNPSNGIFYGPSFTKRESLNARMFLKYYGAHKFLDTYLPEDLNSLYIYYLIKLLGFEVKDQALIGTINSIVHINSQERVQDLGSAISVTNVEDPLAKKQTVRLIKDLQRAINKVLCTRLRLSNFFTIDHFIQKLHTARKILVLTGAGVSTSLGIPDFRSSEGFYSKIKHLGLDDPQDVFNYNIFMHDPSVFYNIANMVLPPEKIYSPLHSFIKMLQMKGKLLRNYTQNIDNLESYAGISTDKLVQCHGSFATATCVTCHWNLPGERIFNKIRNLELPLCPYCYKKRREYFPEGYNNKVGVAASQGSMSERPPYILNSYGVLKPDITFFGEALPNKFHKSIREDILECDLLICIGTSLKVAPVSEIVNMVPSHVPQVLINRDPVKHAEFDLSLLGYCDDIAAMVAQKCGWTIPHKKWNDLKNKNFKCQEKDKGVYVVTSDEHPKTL
Take P269L: the “effect of a mutation on the interaction” value was “disrupting interaction strength”.

The variants in the next assay derive from B1. The note with it: with sir3_yeast SIR3, P06701.
Chain of sir3_yeast SIR3, P06701 (P06701 whole entry): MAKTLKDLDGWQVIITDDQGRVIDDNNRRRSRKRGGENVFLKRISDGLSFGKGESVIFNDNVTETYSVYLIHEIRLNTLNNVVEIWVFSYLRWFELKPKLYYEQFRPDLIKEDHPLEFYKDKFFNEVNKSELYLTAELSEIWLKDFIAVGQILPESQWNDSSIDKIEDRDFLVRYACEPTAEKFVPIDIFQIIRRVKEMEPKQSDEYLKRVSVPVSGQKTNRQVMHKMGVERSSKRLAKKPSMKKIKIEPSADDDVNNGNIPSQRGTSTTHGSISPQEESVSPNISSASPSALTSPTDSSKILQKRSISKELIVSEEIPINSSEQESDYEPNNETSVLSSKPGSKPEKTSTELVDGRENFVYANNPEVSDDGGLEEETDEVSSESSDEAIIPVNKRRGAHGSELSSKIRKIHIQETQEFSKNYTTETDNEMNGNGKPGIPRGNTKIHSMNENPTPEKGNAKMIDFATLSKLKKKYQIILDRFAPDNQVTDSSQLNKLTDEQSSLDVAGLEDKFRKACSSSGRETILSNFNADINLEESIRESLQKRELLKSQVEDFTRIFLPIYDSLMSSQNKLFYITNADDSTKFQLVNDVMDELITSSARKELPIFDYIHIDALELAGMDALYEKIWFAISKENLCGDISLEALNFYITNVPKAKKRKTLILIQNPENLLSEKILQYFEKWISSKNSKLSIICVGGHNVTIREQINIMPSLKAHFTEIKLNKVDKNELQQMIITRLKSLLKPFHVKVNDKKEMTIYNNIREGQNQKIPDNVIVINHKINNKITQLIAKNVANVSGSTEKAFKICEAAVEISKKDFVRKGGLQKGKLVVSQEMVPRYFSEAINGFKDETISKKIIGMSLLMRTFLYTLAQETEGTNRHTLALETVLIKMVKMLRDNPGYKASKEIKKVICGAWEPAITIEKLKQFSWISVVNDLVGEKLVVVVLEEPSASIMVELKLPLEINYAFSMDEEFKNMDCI
In the case of P269L, the “effect of a mutation on the interaction” value was “disrupting interaction strength”.

Consider C320Y, for which the “effect of a mutation on the interaction” value is listed as “disrupting interaction strength”.

Source of the values: IntAct's records for PubMed 16328881.
